Measurements published in publication PMC12032115.

Molecular target: PTPRF (UniProt P10586)
Assay: flow cytometry

Sequence of PTPRF (P10586 30-1907): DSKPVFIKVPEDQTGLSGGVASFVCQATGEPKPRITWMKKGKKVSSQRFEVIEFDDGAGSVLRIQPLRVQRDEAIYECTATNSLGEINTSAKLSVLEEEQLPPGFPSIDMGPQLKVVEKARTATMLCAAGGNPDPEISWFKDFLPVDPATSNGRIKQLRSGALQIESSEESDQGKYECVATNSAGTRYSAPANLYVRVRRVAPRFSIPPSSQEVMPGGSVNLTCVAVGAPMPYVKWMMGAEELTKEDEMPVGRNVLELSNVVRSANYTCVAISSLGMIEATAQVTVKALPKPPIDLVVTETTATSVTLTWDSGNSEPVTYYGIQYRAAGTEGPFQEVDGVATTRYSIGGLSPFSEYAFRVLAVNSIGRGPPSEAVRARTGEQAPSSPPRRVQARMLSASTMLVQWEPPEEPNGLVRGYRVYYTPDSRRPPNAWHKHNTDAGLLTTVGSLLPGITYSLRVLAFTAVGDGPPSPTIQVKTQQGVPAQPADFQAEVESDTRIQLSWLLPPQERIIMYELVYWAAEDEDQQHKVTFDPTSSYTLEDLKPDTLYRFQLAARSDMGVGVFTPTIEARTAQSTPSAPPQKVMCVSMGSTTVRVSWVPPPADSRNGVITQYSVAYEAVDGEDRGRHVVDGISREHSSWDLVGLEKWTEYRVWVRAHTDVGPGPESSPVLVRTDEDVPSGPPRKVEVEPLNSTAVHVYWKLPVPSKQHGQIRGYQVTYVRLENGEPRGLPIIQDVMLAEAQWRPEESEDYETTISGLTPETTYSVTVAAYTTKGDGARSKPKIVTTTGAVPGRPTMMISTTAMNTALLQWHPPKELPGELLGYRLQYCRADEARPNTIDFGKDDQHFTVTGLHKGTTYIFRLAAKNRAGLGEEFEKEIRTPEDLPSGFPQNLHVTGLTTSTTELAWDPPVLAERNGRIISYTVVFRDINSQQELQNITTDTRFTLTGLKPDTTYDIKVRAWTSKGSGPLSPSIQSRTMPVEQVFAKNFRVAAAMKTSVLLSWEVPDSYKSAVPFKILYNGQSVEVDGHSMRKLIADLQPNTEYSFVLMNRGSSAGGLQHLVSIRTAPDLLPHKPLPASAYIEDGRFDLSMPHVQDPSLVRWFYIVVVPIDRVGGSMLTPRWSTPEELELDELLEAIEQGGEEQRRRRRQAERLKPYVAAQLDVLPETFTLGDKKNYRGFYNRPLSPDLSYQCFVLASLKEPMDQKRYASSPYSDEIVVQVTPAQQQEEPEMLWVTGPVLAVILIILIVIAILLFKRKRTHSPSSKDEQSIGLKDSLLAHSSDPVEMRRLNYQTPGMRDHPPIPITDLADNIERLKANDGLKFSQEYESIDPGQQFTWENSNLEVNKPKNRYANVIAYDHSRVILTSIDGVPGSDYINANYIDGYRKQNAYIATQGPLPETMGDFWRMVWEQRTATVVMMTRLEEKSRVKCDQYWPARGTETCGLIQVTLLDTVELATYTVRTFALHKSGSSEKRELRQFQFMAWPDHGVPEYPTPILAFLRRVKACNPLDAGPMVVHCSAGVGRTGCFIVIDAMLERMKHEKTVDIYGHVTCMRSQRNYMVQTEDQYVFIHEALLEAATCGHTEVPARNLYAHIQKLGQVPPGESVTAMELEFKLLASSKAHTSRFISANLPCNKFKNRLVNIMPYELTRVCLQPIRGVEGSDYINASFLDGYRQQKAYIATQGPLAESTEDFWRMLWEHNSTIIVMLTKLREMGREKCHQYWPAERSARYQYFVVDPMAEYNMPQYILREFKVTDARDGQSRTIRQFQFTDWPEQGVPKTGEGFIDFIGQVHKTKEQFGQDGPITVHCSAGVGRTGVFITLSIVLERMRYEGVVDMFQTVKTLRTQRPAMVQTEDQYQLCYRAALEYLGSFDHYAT

## TGGAGGATATAGGTTGGCTTAGGTGGCTTTGCGTTGGGTGTGGTGCATATCCTCCA [ZAJ4a]
  Kd: 23.3 nM
